Measurements: patent US20230235029A1 (INTEGRATED BIOTHERAPEUTICS, published 2023)

How the values were obtained:
Test in all cases: cell-based or functional assay
[1] = target: T1, Marburg virus Angola GP on rVSV pseudotype (Marburg virus, Angola strain, UniProt Q1PD50 19-681)
T1 sequence: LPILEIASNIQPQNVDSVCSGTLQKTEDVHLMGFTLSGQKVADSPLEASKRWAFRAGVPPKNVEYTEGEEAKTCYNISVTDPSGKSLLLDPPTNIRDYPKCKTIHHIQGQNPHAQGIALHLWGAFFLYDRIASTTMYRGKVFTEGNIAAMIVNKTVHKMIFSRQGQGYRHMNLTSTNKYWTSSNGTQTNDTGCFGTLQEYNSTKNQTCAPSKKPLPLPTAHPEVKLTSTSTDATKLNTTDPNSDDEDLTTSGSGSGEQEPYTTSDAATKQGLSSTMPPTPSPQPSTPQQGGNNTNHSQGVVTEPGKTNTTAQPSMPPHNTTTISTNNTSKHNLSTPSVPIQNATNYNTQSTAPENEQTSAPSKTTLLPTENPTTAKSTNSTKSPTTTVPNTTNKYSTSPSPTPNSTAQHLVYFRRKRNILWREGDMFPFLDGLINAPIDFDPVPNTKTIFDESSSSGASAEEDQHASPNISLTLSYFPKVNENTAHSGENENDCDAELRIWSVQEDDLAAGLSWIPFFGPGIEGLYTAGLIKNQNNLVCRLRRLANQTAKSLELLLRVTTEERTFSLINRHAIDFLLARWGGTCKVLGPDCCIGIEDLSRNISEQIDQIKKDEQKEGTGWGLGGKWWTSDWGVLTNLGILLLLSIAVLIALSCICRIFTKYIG

[2] = target: T2, RAVV GP on rVSV pseudotype (VSV-MARV RAVV GP) (Ravn virus, UniProt Q1PDC7 19-681)
T2 sequence: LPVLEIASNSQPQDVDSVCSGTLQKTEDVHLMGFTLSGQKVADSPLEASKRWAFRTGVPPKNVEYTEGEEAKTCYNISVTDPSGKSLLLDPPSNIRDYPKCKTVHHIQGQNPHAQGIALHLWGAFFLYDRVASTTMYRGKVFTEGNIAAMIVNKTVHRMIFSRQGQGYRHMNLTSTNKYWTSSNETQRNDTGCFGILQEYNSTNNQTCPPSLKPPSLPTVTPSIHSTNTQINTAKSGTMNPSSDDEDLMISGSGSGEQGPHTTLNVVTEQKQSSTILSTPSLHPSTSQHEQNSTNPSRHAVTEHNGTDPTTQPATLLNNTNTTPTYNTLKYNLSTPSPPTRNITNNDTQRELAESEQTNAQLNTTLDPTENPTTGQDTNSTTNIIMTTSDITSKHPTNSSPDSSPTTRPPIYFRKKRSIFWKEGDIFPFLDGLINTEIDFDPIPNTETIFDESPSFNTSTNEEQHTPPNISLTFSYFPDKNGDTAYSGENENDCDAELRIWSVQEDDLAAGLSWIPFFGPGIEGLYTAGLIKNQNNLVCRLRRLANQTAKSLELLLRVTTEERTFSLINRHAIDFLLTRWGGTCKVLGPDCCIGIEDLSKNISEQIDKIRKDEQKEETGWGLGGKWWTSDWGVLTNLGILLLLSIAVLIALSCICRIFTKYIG

[3] = target: T3, Marburg virus Musoke GP on rVSV pseudotype (VSV-MARV Musoke GP) (Marburg virus, Musoke strain, UniProt P35253 19-681)
T3 sequence: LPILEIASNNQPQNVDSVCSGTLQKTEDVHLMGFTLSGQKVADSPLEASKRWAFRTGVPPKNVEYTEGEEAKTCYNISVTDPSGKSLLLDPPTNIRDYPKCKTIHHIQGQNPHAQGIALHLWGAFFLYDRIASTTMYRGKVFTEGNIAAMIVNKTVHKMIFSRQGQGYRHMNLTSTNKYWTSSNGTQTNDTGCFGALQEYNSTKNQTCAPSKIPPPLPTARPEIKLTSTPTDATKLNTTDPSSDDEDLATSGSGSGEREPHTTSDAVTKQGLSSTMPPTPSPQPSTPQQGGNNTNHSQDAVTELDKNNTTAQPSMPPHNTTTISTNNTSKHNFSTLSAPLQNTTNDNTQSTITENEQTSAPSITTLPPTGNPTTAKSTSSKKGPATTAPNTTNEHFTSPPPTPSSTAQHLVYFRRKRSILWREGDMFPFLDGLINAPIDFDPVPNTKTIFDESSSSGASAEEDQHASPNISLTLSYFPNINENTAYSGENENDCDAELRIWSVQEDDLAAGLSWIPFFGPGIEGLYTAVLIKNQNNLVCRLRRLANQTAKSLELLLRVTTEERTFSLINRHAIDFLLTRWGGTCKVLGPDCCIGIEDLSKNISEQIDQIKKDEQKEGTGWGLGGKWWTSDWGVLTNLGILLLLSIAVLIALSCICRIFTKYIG

B1: R45 (antibody, V domains shown)
VH: EVQLVESGGGLAKPGGSLRLSCAASGFTFGDHWMSWVRQAPGNGLQWISAIDRAGGSTFYADSVKGRFTISRENAKNTLYLQIDSLRPEDTAVYFCARDQGRTVGYLDYWGQGVLVTVSS
VL: QSALTQPRSVSGSPGQSVTISCTGTSSDIGSYTYVSWYRQHPGTAPKLIIYDVDERPSGVSYRFSGSKSGNTASLTISGLQAEDEADYYCSSYAGRNTWVFGGGTRLTVL
NT50 [1]: 0.1 µg/mL
NT50 [2]: 0.27 µg/mL
NT50 [3]: 0.1 µg/mL

B2: R79 (antibody, V domains shown)
VH: EVQLVESGGGLAKPGGSLRLSCAASGFTFNDYWLFWVRQAPGRGLEWISTINRPGSSTFYADSVKGRFTISRENANNALYLQMDSLRPEDTAVYYCARDQGRTVGYLDYWGQGVLVTVSS
VL: QSALTQPRSVSGSPGQSVTISCTGTSSDIGSYSYVSWYQQHPGTAPKLIIYDDSERPSGVSDRFSGSKSGNTASLTISGLQAEDEADYYCSSYAGSNTWVFGGGTRLTVL
NT50 [1]: 0.21 µg/mL
NT50 [2]: 0.45 µg/mL
NT50 [3]: 0.17 µg/mL

B3: R13 (antibody, V domains shown)
VH: EVQLVESGAGLVQPGGSLRLSCAASGFTFSNSWMTWVRQAPGKGLEWLARIKRKADGETADYAASVKGRFTISRDDSKNTLYLQMNSLKTEDTAVYYCTTYNWNFNFDFWGQGVLVTVSS
VL: DIQMTQSPSSLSASVGDRVTITCRASQDISPYLNWYQQKPGKAPKLLIYYGNRLESGVPSRFSGSGSGTDLTLTISSLQPEDFATYYCQQYYRLPLTFGGGTKVETK
NT50 [1]: 0.03 µg/mL
NT50 [2]: 0.07 µg/mL
NT50 [3]: 0.03 µg/mL

B4: R15 (antibody, V domains shown)
VH: EVQLVESGAGLVRPGGSLRLSCAASGFTFSNTWMTWVRQAPGRGLEWLARIKRKADGETADYAASVKGRFTISRDDSKHTLFLQMNSLKTEDTAVYYCTTYNWNFNFDNWGQGVLVTVSS
VL: DIQMTQSPSSLSASVGDRVTITCRASQAFSSYLNWYQQKPGKAPKLLIYYANRLESGVPSRFSGSESGTEFTLTISSLQPEDFATYYCQQYYRLPLTFGGGTKVEIK
NT50 [1]: 0.04 µg/mL
NT50 [2]: 0.08 µg/mL
NT50 [3]: 0.03 µg/mL

B5: R39 (antibody, V domains shown)
VH: EVQLVESGAGLVQPGGSLRLSCAGSGFTFSNTWMTWVRQAPGKGLEWVARIKRKADGETADYAASVKGRFTISRDDSKNTLYLQMNSLKTEDTAVYYCTTYNWNFNFDYWGQGVLVTVSS
VL: DIQMTQSPSSLSASVGDRVTITCRASQDISPYLNWYQQKPGKAPKLLIYYGNRLESGVPSRFSGSGSGTDLTLTISSLQPEDFATYYCQQYYRLPLTFGGGTKVEIK
NT50 [1]: 0.03 µg/mL
NT50 [2]: 0.07 µg/mL
NT50 [3]: 0.04 µg/mL

B6: R29 (antibody, V domains shown)
VH: EVQLVESGAGLVQPGGSLRLSCIASGFTFSNSWMTWVRQAPGRGLEWIARIKRKADGETADYAASVKGRFTISRDDSKNTLYLQMNSLKTEDTAVYYCTTYNWNFNFDYWGQGVLVTVSS
VL: DIQMTQSPSSLSASVGDRVTITCRASQDISPYLNWYQQKPGKAPKLLIYYGNRLESGVPSRFSGSGSGTDLTLTISSLQPEDFATYYCQQYYRLPLTFGGGTKVEIK
NT50 [1]: 0.02 µg/mL
NT50 [2]: 0.03 µg/mL
NT50 [3]: 0.02 µg/mL

B7: R24 (antibody, V domains shown)
VH: EVQLVESGAGLVQPGGSLRLSCAGSGFTFSNTWMTWVRQAPGKGLEWVARIKRKADGETADYAASVKGRFTISRDDSKSTLYLQMNSLKTEDTAVYYCTTYNWNFNFDYWGQGVLVTVSS
VL: DIQMTQSPSSLSASVGDRVTITCRASQDISPYLNWYQQKPGKAPKLLIYYGNRLESGVPSRFSGSGSGTDLTLTISSLQPEDFATYYCQQYYRLPLTFGGGTKVESK
NT50 [1]: 0.04 µg/mL
NT50 [2]: 0.06 µg/mL
NT50 [3]: 0.03 µg/mL

B8: R25 (antibody, V domains shown)
VH: EVQLVESGAGLVQPGGSLRLSCAASGFTFSNSWMTWVRQAPGKGLEWVGRIKRKADGETADYAASVKGRFTISRDDSKNTLYLQMNSLKTEDTAVYYCTTYNWNFNFDHWGQGVLVTVSS
VL: DIQMTQSPSSLSASVGDRVTITCRASQDISPYLNWYQQKPGKAPKLLIYYGNRLESGVPSRFSGSGSGTDLTLTISSLQPEDFATYYCQQYYRLPLTFGGGTKVEIK
NT50 [1]: 0.03 µg/mL
NT50 [2]: 0.04 µg/mL
NT50 [3]: 0.01 µg/mL

B9: R50 (antibody, V domains shown)
VH: QVQLQESGPGLVKPSETLSLTCAVSGDSISSYWWNWIRQPPGKGLEWIGEIYGYSGSTNYNASLKSRVTISKDASKKQLSLKLSSVTAADTAVYYCARDPLNQDAFDFWGLGLRVTVSS
VL: QSALTQPPSVSGSPGQSVTISCTGTSSDIGGYTYVSWYQQHPGKAPKLMIYDVSRRPSGVSDRFSGSKSGNTASLTISGLQAEDEADYYCSSYAGRNALLFGGGTRLTVL
NT50 [1]: 0.05 µg/mL
NT50 [2]: 0.21 µg/mL
NT50 [3]: 0.06 µg/mL

B10: R55 (antibody, V domains shown)
VH: QVQLQESGPGLVKPSETLSLTCAVSGDSISSYWWNWIRQPPGKGLEWIGEIYGYSGSTNYNPSLKSRVTISKDASKKQLSLKLSSVTAADTAVYYCARDPLNQDAFDFWGLGLRVTVSS
VL: QSALTQPPSVSGSPGQSVTISCTGTSSDIGGYTYVSWYQQHPGKAPKLMIYDVSRRPSGVSDRFSGSKSGNTASLTISGLQAEDEADYYCSSYAGRNALLFGGGTRLTVL
NT50 [1]: 0.07 µg/mL
NT50 [2]: 0.24 µg/mL
NT50 [3]: 0.07 µg/mL

B11: R53 (antibody, V domains shown)
VH: QVQLQESGPGLVKPSETLSLTCAVSGASISSYWWNWIRQPPGKGLEWIGEIYGYSGSTYYSPSLKSRVTISKDASKNQFSLKLSSATAADTAVYYCVRDPLNQDAFDFWGQGLRVTVSS
VL: QSALTQPPSVSGSPGQSVTISCTGTSSDIGSYDYVSWYQQHPGKAPKLMMYDVSKRPSGVFDRFSGSKSGNTASLTISGLQADDEAAYFCSSYAGRRILLFGGGTRLTVL
NT50 [1]: 0.02 µg/mL
NT50 [2]: 0.07 µg/mL
NT50 [3]: 0.02 µg/mL

B12: R64 (antibody, V domains shown)
VH: QVQLQESGPGLVKPSETLSLTCAVSGASMSDYWWNWIRQPPGKGLEWIGEIYGYSGSSYYNPSLKSRVSISKDASKKQLSLKLSSVTAADTAVYYCARDPLNQDAFDFWGLGLRVTVSS
VL: QSALTQPPSVSGSPGLSVTISCTGSGSDIGGYDYVSWYQQHPGKAPKLMIYGVNKRPSGVSDRFSGSKSGNTASLSISGLQAEDEADYYCSSYAGSHTLLFGGGSRLTVL
NT50 [1]: 0.02 µg/mL
NT50 [2]: 0.09 µg/mL
NT50 [3]: 0.03 µg/mL

B13: R63 (antibody, V domains shown)
VH: QVQLQESGPGLVKASETLSLTCAVSGASISSYWWNWIRLSPGKGLEWIGEIYGYSGSTSYNSSLKSRVSISRDASKNQFSLKLSSVTAADTAVYYCARDPLNHDAFDFWGRGFRVTVSS
VL: QSALTQPPSVSGSPGQSVTISCAGTSSDIGGYTYVSWYQQHPGKAPKLMIYDVNERPSGVSDRFSGSKSGNTASLTISGLQAEDEADYYCSSYAGSKTVSFGGGTRLSVL
NT50 [1]: 0.04 µg/mL
NT50 [2]: 0.17 µg/mL
NT50 [3]: 0.05 µg/mL
